Measured values as given in patent US20240343811A1 (SHANDONG SIMCERE BIOPHARMACUTICAL, published 2024).

T1: human CD16b (NA1), full length, on FlpinCHO cells (human, UniProt O75015 17-200)
T1 construct: also called FlpinCHO-human CD16b (NA1)
T1 chain: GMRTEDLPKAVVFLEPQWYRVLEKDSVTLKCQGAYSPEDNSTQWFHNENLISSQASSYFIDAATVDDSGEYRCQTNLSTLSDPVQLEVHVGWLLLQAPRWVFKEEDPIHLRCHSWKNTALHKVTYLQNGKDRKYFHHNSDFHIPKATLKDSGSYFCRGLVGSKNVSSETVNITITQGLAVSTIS

T2: human CD16b (NA2), full length, on FlpinCHO cells (human, UniProt O75015 17-200)
T2 construct: also called FlpinCHO-human CD16b (NA2)
T2 chain: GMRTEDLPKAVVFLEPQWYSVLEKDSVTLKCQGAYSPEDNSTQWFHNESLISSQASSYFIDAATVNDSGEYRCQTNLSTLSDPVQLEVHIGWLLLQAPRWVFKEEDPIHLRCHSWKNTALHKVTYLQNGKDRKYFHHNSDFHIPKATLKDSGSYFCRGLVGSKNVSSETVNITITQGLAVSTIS


Columns and labels:
Human CD16a (158F)-his = molecular target: T3, Human CD16a (158F)-his (human); assay: SPR (Biacore), antibody captured on Protein A
T3 construct: entry holds ECD, AVI tag, linker and His tag
Description: (§1) A sample buffer and a running buffer were HBS-EP+ (10 mM HEPES, 150 mM NaCl, 3 mM EDTA and 0.05% surfactant P20) (GE Healthcare; BR-1006-69). The flow-through cell was set to 25° C. The sample block was set to 16° C. Both were pretreated with the running buffer. In each cycle, an antibody to be detected was first captured with a Protein A chip, and then a single concentration of CD16 antigen protein was injected. The binding and dissociation processes of the antibody and the antigen protein were recorded, and finally Glycine pH 1.5 (GE Healthcare; BR-1003-54) was used to complete chip regeneration. Binding was measured by injecting different concentrations of recombinant human CD16-ECD his proteins in a solution for 240 s with a flow rate of 30 μL/min, wherein a total of 5 concentrations were prepared by using 200 nM as a starting concentration (see the detailed results for the actual concentration in the test) and performing a 1:1 dilution. The dissociation phase was monitored for up to 600 s and was triggered by switching from a sample solution to a running buffer. The surface was regenerated by washing with a 10 mM glycine solution (pH 1.5) for 30 s at a flow rate of 30 μL/min. Bulk refractive index difference was corrected by subtracting the response obtained from the goat anti-human Fc surface. Blank injection was also subtracted (=double reference). For calculation of apparent KD and other kinetic parameters, Langmuir 1:1 model was used.

Human CD16a (158V)-his = molecular target: T4, Human CD16a (158V)-his (human); assay: SPR (Biacore), antibody captured on Protein A
T4 construct: entry holds ECD, AVI tag, linker and His tag
Description: as §1

[1] = molecular target: T1, human CD16b (NA1), full length, on …; assay: FACS on FlpinCHO cells
Description: (§2) The required cells were scale-up cultured in a T-75 cell culture flask to the logarithmic growth phase. The medium was aspirated, and the cells were washed twice with a PBS buffer and then digested with trypsin. After the digestion was terminated, the cells were washed twice with the PBS buffer. The cells were counted, and then the cell pellet was resuspended with a [PBS+2% (w/w) BSA] blocking solution to 2×10⁶ cells/ml, and added to a 96-well FACS reaction plate at 50 μl/well. […] 50 μl/well of the antibody to be detected was added at different concentrations, and incubated on ice for 1 hour. […] The mixture was centrifuged and washed 5 times with PBS, and FACS (FACS Canto II, purchased from BD Company) was used for detection and result analysis. Data analysis was performed by software (CellQuest) to obtain the mean fluorescence intensity (MFI) of the cells. Then, software (GraphPad Prism8) was used for analysis, data fitting and EC50 value calculation.
(§3) The binding of an antibody to be detected to FlpinCHO-human CD16b cells was detected according to the method of Example 3.1.

[2] = molecular target: T2, human CD16b (NA2), full length, on …; assay: FACS on FlpinCHO cells
Description: as §2, §3

[3] = molecular target: T5, human CD16a (158V), full length, on cells (human, UniProt P08637 17-254); assay: cell-based or functional assay
[4] = molecular target: T6, CD16 on primary human NK cells (human, UniProt P08637 17-254); assay: FACS on human NK cells
T6 construct: whole, on cells; also called resting NK cells
Description: as §2
The binding of an antibody to be detected to freshly prepared human NK cells (Milestone Biotechnologies, catalog number: PB56-N-Custom) was detected according to the method of Example 3.1.

[5] = molecular target: T7, human CD16a (158F), full length, on FlpinCHO cells (human, UniProt P08637 17-254); assay: FACS, biotinylated antibody, +10 mg/mL human immunoglobulin
Description: as §2, with “The” for “The required cells were scale-up cultured in a T-75 cell culture flask to the logarithmic growth phase. The”
(§4) An antibody to be detected was labeled in advance according to the instructions of a biotin labeling kit (EZ-Link™ NHS-PEG4 Biotinylation Kit, purchased from Thermofisher Scientific, catalog number: 21455). […] Detection was performed according to the method of Example 3.1, wherein the biotinylated antibody was detected with fluorescein APC-labeled Streptavidin (High Concentration) (purchased from Biolegend, catalog number: 405243).

[6] = molecular target: T5, human CD16a (158V), full length, on …; assay: as above
Description: as §2, with “The” for “The required cells were scale-up cultured in a T-75 cell culture flask to the logarithmic growth phase. The”
as §4

[7] = molecular target: T7, human CD16a (158F), full length, on …; assay: FACS, biotinylated antibody
Description: as §2, with “The” for “The required cells were scale-up cultured in a T-75 cell culture flask to the logarithmic growth phase. The”
as §4

[8] = molecular target: T5, human CD16a (158V), full length, on …; assay: FACS, biotinylated antibody
Description: as §2, with “The” for “The required cells were scale-up cultured in a T-75 cell culture flask to the logarithmic growth phase. The”
as §4

[9] = molecular target: T7, human CD16a (158F), full length, on …; assay: FACS on FlpinCHO cells
Description: as §2

[10] = molecular target: T5, human CD16a (158V), full length, on …; assay: FACS on FlpinCHO cells
Description: as §2

Binder | Kd (Human CD16a (158F)-his) | koff (Human CD16a (158F)-his) | kon (Human CD16a (158F)-his) | Kd (Human CD16a (158V)-his) | koff (Human CD16a (158V)-his) | kon (Human CD16a (158V)-his) | EC50 [1] | Maximum mean fluorescence intensity [1] | Maximum mean fluorescence intensity [2] | binding result [2] | EC50, activation activity for Jurkat cell [3] | Maximum fluorescence value [3] | EC50 [5] | Maximum mean fluorescence intensity [5] | EC50 [6] | Maximum mean fluorescence intensity [6] | EC50 [7] | Maximum mean fluorescence intensity [7] | EC50 [8] | Maximum mean fluorescence intensity [8] | further results
VHH07 VHH-Fc antibody (Fc fusion) EVQLVESGGGLVQAGGSLRLSCVASRSTLTTYAVRWYRQAPGKQREWVAFISVDGKTNYPDSVKGRFIVSRDNAKNTVYLQMNSLKPEDTADYICRAGGQYWGQGTQVTVSSEPKSSDKTHTCPPCPAPEFEGGPSVFLFPPKPKDTLMISRTPEVTCVVVAVSHEDPEVKFNWYVDGVEVHNAKTKPREEQYNSTYRVVSVLTVLHQDWLNGKEYKCKVSNKALPAPIEKTISKAKGQPREPQVYTLPPSREEMTKNQVSLTCLVKGFYPSDIAVEWESNGQPENNYKTTPPVLDSDGSFFLYSKLTVDKSRWQQGNVFSCSVMHEALHNHYTQKSLSLSPGK | 67.2 nM | 0.00451 s⁻¹ | 67200 M⁻¹ s⁻¹ | 22.7 nM | 0.00249 s⁻¹ | 110000 M⁻¹ s⁻¹ | 0.35 nM | 52900 | 113 | no binding (tested: 100 nM) | 0.02 nM | 174000 | 0.87 nM | 5520 | 0.85 nM | 7900 | 0.24 nM | 4160 | 0.22 nM | 5970 | EC50 [4]: 0.22 nM; Maximum mean fluorescence intensity [4]: 2330; EC50 [9]: 0.25 nM; Maximum mean fluorescence intensity [9]: 5190; EC50 [10]: 0.32 nM; Maximum mean fluorescence intensity [10]: 5970
VHH09 VHH-Fc antibody (Fc fusion) EVQVVESGGGLVQAGGSLRLSCVASTSTLTTYAVRWYRQAPGKQREWVAFISVDGNTNYPDSVKGRFIVSRDNAKNTVYLQMNSLKPEDTADYICRAGGQYWGQGTQVTVSSEPKSSDKTHTCPPCPAPEFEGGPSVFLFPPKPKDTLMISRTPEVTCVVVAVSHEDPEVKFNWYVDGVEVHNAKTKPREEQYNSTYRVVSVLTVLHQDWLNGKEYKCKVSNKALPAPIEKTISKAKGQPREPQVYTLPPSREEMTKNQVSLTCLVKGFYPSDIAVEWESNGQPENNYKTTPPVLDSDGSFFLYSKLTVDKSRWQQGNVFSCSVMHEALHNHYTQKSLSLSPGK | 50.2 nM | 0.00309 s⁻¹ | 61600 M⁻¹ s⁻¹ | 16.1 nM | 0.00178 s⁻¹ | 110000 M⁻¹ s⁻¹ | 0.3 nM | 48200 | 143 | no binding (tested: 100 nM) | 0.03 nM | 159000 | 1.35 nM | 6500 | 1.74 nM | 9480 | 0.39 nM | 5140 | 0.64 nM | 7640 | EC50 [4]: 0.76 nM; Maximum mean fluorescence intensity [4]: 2420; EC50 [9]: 0.47 nM; Maximum mean fluorescence intensity [9]: 5550; EC50 [10]: 0.69 nM; Maximum mean fluorescence intensity [10]: 6240
VHH08 VHH-Fc antibody (Fc fusion) EVQVVESGGGLVQAGGSLRLSCVASRSTLSTYAVRWYRQAPGNQREWVAFISVDGNTNYPDSVKGRFIVSRDNAKNTVYLQMNSLKPEDTADYICRAGGQYWGQGTQVTVSSEPKSSDKTHTCPPCPAPEFEGGPSVFLFPPKPKDTLMISRTPEVTCVVVAVSHEDPEVKFNWYVDGVEVHNAKTKPREEQYNSTYRVVSVLTVLHQDWLNGKEYKCKVSNKALPAPIEKTISKAKGQPREPQVYTLPPSREEMTKNQVSLTCLVKGFYPSDIAVEWESNGQPENNYKTTPPVLDSDGSFFLYSKLTVDKSRWQQGNVFSCSVMHEALHNHYTQKSLSLSPGK | 80.5 nM | 0.00559 s⁻¹ | 69500 M⁻¹ s⁻¹ | 22.1 nM | 0.00266 s⁻¹ | 120000 M⁻¹ s⁻¹ | 0.18 nM | 38600 | 149 | no binding (tested: 100 nM) | 0.02 nM | 178000 | 1.08 nM | 6060 | 1.24 nM | 8840 | 0.85 nM | 3940 | 0.71 nM | 5660 | EC50 [9]: 0.56 nM; Maximum mean fluorescence intensity [9]: 4240; EC50 [10]: 0.81 nM; Maximum mean fluorescence intensity [10]: 4710
